# Measured values as given in patent publication US20260167699A1 (Chugai, published 2026).
# B1: GpH7-A5/GpH7-B3 variant S298_14T/GpL16-k0 (antibody, human IgG1, kappa)
# heavy 1: not shown
# heavy 2: not shown
# light: DIVMTQSPLSLPVTPGEPASISCQASESLVHSNRNTYLHWYLQKPGQSPQLLIYKVSNRFSGVPDRFSGSGSGTDFTLKISRVEAEDVGVYYCSQNTHVPPTFGQGTKVEIERTVAAPSVFIFPPSDEQLKSGTASVVCLLNNFYPREAKVQWKVDNALQSGNSQESVTEQDSKDSTYSLSSTLTLSKADYEKHKVYACEVTHQGLSSPVTKSFNRGEC
# notes: copies: 1 + 1 + 2
# B2: GpH7-A5/GpH7-B3 variant S298_16H/GpL16-k0 (antibody, human IgG1, kappa)
# heavy 1: not shown
# heavy 2: not shown
# light: B1 light
# notes: copies: 1 + 1 + 2
# B3: GpH7-A5/GpH7-B3 variant Q295_09D/GpL16-k0 (antibody, human IgG1, kappa)
# heavy 1: not shown
# heavy 2: not shown
# light: B1 light
# notes: copies: 1 + 1 + 2
# B4: GpH7-A5/GpH7-B3 variant Q295_12R/GpL16-k0 (antibody, human IgG1, kappa)
# heavy 1: not shown
# heavy 2: not shown
# light: B1 light
# notes: copies: 1 + 1 + 2
# B5: GpH7-A5/GpH7-B3 variant S298_18N/GpL16-k0 (antibody, human IgG1, kappa)
# heavy 1: not shown
# heavy 2: not shown
# light: B1 light
# notes: copies: 1 + 1 + 2
# B6: GpH7-A5/GpH7-B3 variant Q295_11K/GpL16-k0 (antibody, human IgG1, kappa)
# heavy 1: not shown
# heavy 2: not shown
# light: B1 light
# notes: copies: 1 + 1 + 2
# B7: GpH7-A5/GpH7-B3 variant S267_06M/GpL16-k0 (antibody, human IgG1, kappa)
# heavy 1: not shown
# heavy 2: not shown
# light: B1 light
# notes: copies: 1 + 1 + 2
# B8: GpH7-A5/GpH7-B3 variant S298_02A/GpL16-k0 (antibody, human IgG1, kappa)
# heavy 1: not shown
# heavy 2: not shown
# light: B1 light
# notes: copies: 1 + 1 + 2
# B9: GpH7-A5/GpH7-B3 variant S298_19Q/GpL16-k0 (antibody, human IgG1, kappa)
# heavy 1: not shown
# heavy 2: not shown
# light: B1 light
# notes: copies: 1 + 1 + 2
# B10: GpH7-A5/GpH7-B3 variant S324_09D/GpL16-k0 (antibody, human IgG1, kappa)
# heavy 1: not shown
# heavy 2: not shown
# light: B1 light
# notes: copies: 1 + 1 + 2
# B11: GpH7-A5/GpH7-B3 variant Q295_06M/GpL16-k0 (antibody, human IgG1, kappa)
# heavy 1: not shown
# heavy 2: not shown
# light: B1 light
# notes: copies: 1 + 1 + 2
# B12: GpH7-A5/GpH7-B3 variant S239_03V/GpL16-k0 (antibody, human IgG1, kappa)
# heavy 1: not shown
# heavy 2: not shown
# light: B1 light
# notes: copies: 1 + 1 + 2
# B13: GpH7-A5/GpH7-B3 variant S298_04F/GpL16-k0 (antibody, human IgG1, kappa)
# heavy 1: not shown
# heavy 2: not shown
# light: B1 light
# notes: copies: 1 + 1 + 2
# B14: GpH7-A5/GpH7-B3 variant Q295_08L/GpL16-k0 (antibody, human IgG1, kappa)
# heavy 1: not shown
# heavy 2: not shown
# light: B1 light
# notes: copies: 1 + 1 + 2
# B15: GpH7-A5/GpH7-B3 variant S324_11K/GpL16-k0 (antibody, human IgG1, kappa)
# heavy 1: not shown
# heavy 2: not shown
# light: B1 light
# notes: copies: 1 + 1 + 2
# B16: GpH7-A5/GpH7-B3 variant S324_10E/GpL16-k0 (antibody, human IgG1, kappa)
# heavy 1: not shown
# heavy 2: not shown
# light: B1 light
# notes: copies: 1 + 1 + 2
# B17: GpH7-A5/GpH7-B3 variant S324_03V/GpL16-k0 (antibody, human IgG1, kappa)
# heavy 1: not shown
# heavy 2: not shown
# light: B1 light
# notes: copies: 1 + 1 + 2
# B18: GpH7-A5/GpH7-B3 variant S324_02A/GpL16-k0 (antibody, human IgG1, kappa)
# heavy 1: not shown
# heavy 2: not shown
# light: B1 light
# notes: copies: 1 + 1 + 2
# B19: GpH7-A5/GpH7-B3 variant S324_14T/GpL16-k0 (antibody, human IgG1, kappa)
# heavy 1: not shown
# heavy 2: not shown
# light: B1 light
# notes: copies: 1 + 1 + 2
# B20: GpH7-A5/GpH7-B3 variant S298_09D/GpL16-k0 (antibody, human IgG1, kappa)
# heavy 1: not shown
# heavy 2: not shown
# light: B1 light
# notes: copies: 1 + 1 + 2
# B21: GpH7-A5/GpH7-B3 variant S298_01G/GpL16-k0 (antibody, human IgG1, kappa)
# heavy 1: not shown
# heavy 2: not shown
# light: B1 light
# notes: copies: 1 + 1 + 2
# B22: GpH7-A5/GpH7-B3 variant S239_08L/GpL16-k0 (antibody, human IgG1, kappa)
# heavy 1: not shown
# heavy 2: not shown
# light: B1 light
# notes: copies: 1 + 1 + 2
# B23: GpH7-A5/GpH7-B3 variant S239_10E/GpL16-k0 (antibody, human IgG1, kappa)
# heavy 1: not shown
# heavy 2: not shown
# light: B1 light
# notes: copies: 1 + 1 + 2
# B24: GpH7-A5/GpH7-B3 variant Q295_15Y/GpL16-k0 (antibody, human IgG1, kappa)
# heavy 1: not shown
# heavy 2: not shown
# light: B1 light
# notes: copies: 1 + 1 + 2
# B25: GpH7-A5/GpH7-B3 variant S239_19Q/GpL16-k0 (antibody, human IgG1, kappa)
# heavy 1: not shown
# heavy 2: not shown
# light: B1 light
# notes: copies: 1 + 1 + 2
# B26: GpH7-A5/GpH7-B3 variant S298_12R/GpL16-k0 (antibody, human IgG1, kappa)
# heavy 1: not shown
# heavy 2: not shown
# light: B1 light
# notes: copies: 1 + 1 + 2
# B27: GpH7-A5/GpH7-B3 variant Q295_05P/GpL16-k0 (antibody, human IgG1, kappa)
# heavy 1: not shown
# heavy 2: not shown
# light: B1 light
# notes: copies: 1 + 1 + 2
# B28: GpH7-A5/GpH7-B3 variant S267_19Q/GpL16-k0 (antibody, human IgG1, kappa)
# heavy 1: not shown
# heavy 2: not shown
# light: B1 light
# notes: copies: 1 + 1 + 2
# B29: GpH7-A5/GpH7-B3 variant S239_09D/GpL16-k0 (antibody, human IgG1, kappa)
# heavy 1: not shown
# heavy 2: not shown
# light: B1 light
# notes: copies: 1 + 1 + 2
# B30: GpH7-A5/GpH7-B3 variant S298_07I/GpL16-k0 (antibody, human IgG1, kappa)
# heavy 1: not shown
# heavy 2: not shown
# light: B1 light
# notes: copies: 1 + 1 + 2
# B31: GpH7-A5/GpH7-B3 variant S267_09D/GpL16-k0 (antibody, human IgG1, kappa)
# heavy 1: not shown
# heavy 2: not shown
# light: B1 light
# notes: copies: 1 + 1 + 2
# Target: T1, FcγRIIIa (human, UniProt P08637 17-208)
# T1 construct: extracellular domain; also called 3a; FcγRIIIa extracellular domain
# T1 sequence (P08637 other isoform, or with tags, fused parts or gaps): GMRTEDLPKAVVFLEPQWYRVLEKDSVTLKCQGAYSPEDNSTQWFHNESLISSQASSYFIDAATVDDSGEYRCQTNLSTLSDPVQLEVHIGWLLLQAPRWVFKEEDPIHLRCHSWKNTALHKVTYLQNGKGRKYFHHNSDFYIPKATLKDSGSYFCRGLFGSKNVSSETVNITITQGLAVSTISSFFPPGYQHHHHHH
# Assay: SPR (Biacore);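 further: antibody variants captured on an SPR sensor chip, with FcγRIIIa passed over as analyte in HBS-EP+ buffer at 25 °C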
# Experimental: The antibody of interest was analyzed for its interaction with FcγR using a BiaCore™ T100, BiaCore™ A100, or BiaCore™ 4000 surface plasmon resonance system (GE Healthcare Japan Corp.). The running buffer used was HBS-EP+ (GE Healthcare Japan Corp.). The assay temperature was set to 25° C. The sensor chips used were: a chip prepared by immobilizing antigenic peptides onto Series S Sensor Chip CM5 (GE Healthcare Japan Corp.) by the amine coupling method; a chip prepared by immobilizing antigenic peptides biotinylated in advance onto Series S Sensor Chip SA (certified) (GE Healthcare Japan Corp.) through their interaction; a chip prepared by immobilizing protein L (ACTIGEN, BioVision, Inc.) onto Series S Sensor Chip CM5 (GE Healthcare Japan Corp.); and a chip prepared by immobilizing protein A/G (Thermo Fisher Scientific K.K.) onto Series S Sensor Chip CM5 (GE Healthcare Japan Corp.). The antibody of interest was captured onto any of these chips and allowed to interact with FcγR diluted with a running buffer. The antibody captured on the chip was washed off through the reaction of 10 mM glycine-HCl (pH 1.5) to regenerate the chip, which was repetitively used.
row,He/Con 3a,Binder
1,106 % of GpH7-A5/GpH7-B3/GpL16-k0,B1
2,71.9 % of GpH7-A5/GpH7-B3/GpL16-k0,B2
3,85.6 % of GpH7-A5/GpH7-B3/GpL16-k0,B3
4,73.2 % of GpH7-A5/GpH7-B3/GpL16-k0,B4
5,51.4 % of GpH7-A5/GpH7-B3/GpL16-k0,B5
6,81.8 % of GpH7-A5/GpH7-B3/GpL16-k0,B6
7,65.3 % of GpH7-A5/GpH7-B3/GpL16-k0,B7
8,151 % of GpH7-A5/GpH7-B3/GpL16-k0,B8
9,70.6 % of GpH7-A5/GpH7-B3/GpL16-k0,B9
10,110 % of GpH7-A5/GpH7-B3/GpL16-k0,B10
11,100 % of GpH7-A5/GpH7-B3/GpL16-k0,B11
12,72.4 % of GpH7-A5/GpH7-B3/GpL16-k0,B12
13,77.6 % of GpH7-A5/GpH7-B3/GpL16-k0,B13
14,120 % of GpH7-A5/GpH7-B3/GpL16-k0,B14
15,90.2 % of GpH7-A5/GpH7-B3/GpL16-k0,B15
16,108 % of GpH7-A5/GpH7-B3/GpL16-k0,B16

row,He/Con 3a,Binder
1,101 % of GpH7-A5/GpH7-B3/GpL16-k0,B17
2,113 % of GpH7-A5/GpH7-B3/GpL16-k0,B18
3,112 % of GpH7-A5/GpH7-B3/GpL16-k0,B19
4,62.7 % of GpH7-A5/GpH7-B3/GpL16-k0,B20
5,74.9 % of GpH7-A5/GpH7-B3/GpL16-k0,B21
6,90 % of GpH7-A5/GpH7-B3/GpL16-k0,B22
7,171 % of GpH7-A5/GpH7-B3/GpL16-k0,B23
8,81.5 % of GpH7-A5/GpH7-B3/GpL16-k0,B24
9,53.8 % of GpH7-A5/GpH7-B3/GpL16-k0,B25
10,52.1 % of GpH7-A5/GpH7-B3/GpL16-k0,B26
11,74.4 % of GpH7-A5/GpH7-B3/GpL16-k0,B27
12,64.3 % of GpH7-A5/GpH7-B3/GpL16-k0,B28
13,156 % of GpH7-A5/GpH7-B3/GpL16-k0,B29
14,90.7 % of GpH7-A5/GpH7-B3/GpL16-k0,B30
15,179 % of GpH7-A5/GpH7-B3/GpL16-k0,B31
